The values below come from patent US20100323397.

The target of the data set is T1, wild type (WT) VirD2 protein, Agrobacterium tumefaciens str. C58 (UniProt P18592).
T1 sequence: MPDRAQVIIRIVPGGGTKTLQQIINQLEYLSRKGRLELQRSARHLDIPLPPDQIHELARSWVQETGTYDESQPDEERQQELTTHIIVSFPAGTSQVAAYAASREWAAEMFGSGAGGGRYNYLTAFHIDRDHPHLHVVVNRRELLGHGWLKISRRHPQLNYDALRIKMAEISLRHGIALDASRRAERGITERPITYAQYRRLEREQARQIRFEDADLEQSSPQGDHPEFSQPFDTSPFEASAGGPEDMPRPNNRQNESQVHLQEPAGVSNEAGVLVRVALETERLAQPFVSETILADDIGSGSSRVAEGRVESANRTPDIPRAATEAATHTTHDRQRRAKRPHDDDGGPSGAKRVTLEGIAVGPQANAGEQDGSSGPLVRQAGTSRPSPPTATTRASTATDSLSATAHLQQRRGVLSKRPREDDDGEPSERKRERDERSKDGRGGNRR

In the case of “plant caspase (putative subtilisin-like (serine) protease, PSLP) from tobacco”, the “Western (immunoblotting) analysis of degradation by plant caspase” value is reported as “degradation of wild type (WT) VirD2 protein by plant caspase (lane 2)”.
